Measurements as given in patent US20210024639A1 (AGOMAB THERAPEUTICS, published 2021).

Legend:
[1] = biological target: T1, native human MET on living human cells (human, UniProt P08581 25-1390); test: cell-based or functional assay
[2] = biological target: T2, native mouse MET on living mouse cells (mouse, UniProt P16056 25-1379); test: cell-based or functional assay
[3] = biological target: T1, native human MET on living human cells; test: flow cytometry, A549 cells
Experimental: (§1) We also analysed whether chimeric anti-MET antibodies bound to native human and mouse MET in living cells. […] Antibody binding to cells was analysed by flow cytometry using phycoerythrin-conjugated anti-human IgG1 antibodies (eBioscience) and a CyAn ADP analyser (Beckman Coulter). As a positive control for human MET binding, we used a commercial mouse anti-human MET antibody (R&D Systems) and phycoerythrin-conjugated anti-mouse IgG1 antibodies (eBioscience). As a positive control for mouse MET binding we used a commercial goat anti-mouse MET antibody (R&D Systems) and phycoerythrin-conjugated anti-goat IgG1 antibodies (eBioscience). […] Consistent with the data obtained in ELISA, maximal binding (EMAX) varied depending on antibody, but was similar in human and mouse cells.

[4] = biological target: T2, native mouse MET on living mouse cells; test: flow cytometry, MLP29 cells
Experimental: as §1

[5] = biological target: T3, human MET-Fc chimeric protein (R&D Systems) (human, UniProt P08581 25-932); test: competition ELISA, hMET-Fc in solid phase, competitor 0.3 nM biotinylated hHGF
T3 construct: extracellular domain; bought (R&D Systems); also called hMET; not shown: Fc portion of human IgG1
T3 sequence (P08581 25-932, change not shown): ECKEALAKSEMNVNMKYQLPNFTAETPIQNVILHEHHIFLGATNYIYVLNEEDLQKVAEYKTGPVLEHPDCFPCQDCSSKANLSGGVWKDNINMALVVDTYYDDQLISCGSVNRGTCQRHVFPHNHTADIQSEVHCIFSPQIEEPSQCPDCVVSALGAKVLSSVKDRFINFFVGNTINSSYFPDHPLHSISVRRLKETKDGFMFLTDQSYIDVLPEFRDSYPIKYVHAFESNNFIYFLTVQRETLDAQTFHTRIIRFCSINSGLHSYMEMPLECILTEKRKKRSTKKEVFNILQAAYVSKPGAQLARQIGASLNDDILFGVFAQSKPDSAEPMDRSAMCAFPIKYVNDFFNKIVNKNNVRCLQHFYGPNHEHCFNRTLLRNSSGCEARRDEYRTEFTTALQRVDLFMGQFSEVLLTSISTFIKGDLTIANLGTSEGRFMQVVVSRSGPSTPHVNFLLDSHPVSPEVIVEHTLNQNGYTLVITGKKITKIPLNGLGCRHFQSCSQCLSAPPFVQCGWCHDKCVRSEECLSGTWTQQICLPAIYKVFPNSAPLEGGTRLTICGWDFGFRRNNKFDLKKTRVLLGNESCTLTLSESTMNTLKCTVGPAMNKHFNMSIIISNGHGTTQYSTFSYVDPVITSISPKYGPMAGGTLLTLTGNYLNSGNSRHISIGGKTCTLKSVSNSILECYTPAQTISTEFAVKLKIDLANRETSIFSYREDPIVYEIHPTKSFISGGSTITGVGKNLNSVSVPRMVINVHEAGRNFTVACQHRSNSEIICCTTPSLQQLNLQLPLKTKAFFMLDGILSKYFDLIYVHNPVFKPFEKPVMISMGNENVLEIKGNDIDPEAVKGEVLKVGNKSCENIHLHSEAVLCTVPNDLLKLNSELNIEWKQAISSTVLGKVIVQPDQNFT
Experimental: (§2) To investigate along this line, we tested the competition between mAbs and HGF by ELISA. Recombinant human and mouse HGF (R&D Systems) were biotinylated at the N-terminus using NHS-LC-biotin (Thermo Scientific). MET-Fc protein, either human or mouse (R&D Systems), was immobilized in solid phase and then exposed to 0.3 nM biotinylated HGF, either human or mouse, in the presence of increasing concentrations of antibodies (0-120 nM).
(§3) A MET-Fc chimeric protein (either human or mouse) was immobilized in solid phase and exposed to a fixed concentration of biotinylated HGF (either human or mouse), in the presence of increasing concentrations of antibodies. […] Antibody-HGF competition is expressed as IC₅₀ (the concentration that achieves 50% competition) and IMAX (the maximum % competition reached at saturation).

[6] = biological target: T1, native human MET on living human cells; test: cell-based or functional assay; remark: listed apart in the source
[7] = biological target: T2, native mouse MET on living mouse cells; test: cell-based or functional assay; remark: listed apart in the source
[8] = biological target: T4, mouse MET-Fc chimeric protein (R&D Systems) (mouse, UniProt P16056 25-929, limits assumed); test: competition ELISA, mMET-Fc in solid phase, competitor 0.3 nM biotinylated mHGF
T4 construct: bought (R&D Systems); also called mMET; not shown: Fc
Experimental: as §2, §3

T1 sequence (P08581 25-1390): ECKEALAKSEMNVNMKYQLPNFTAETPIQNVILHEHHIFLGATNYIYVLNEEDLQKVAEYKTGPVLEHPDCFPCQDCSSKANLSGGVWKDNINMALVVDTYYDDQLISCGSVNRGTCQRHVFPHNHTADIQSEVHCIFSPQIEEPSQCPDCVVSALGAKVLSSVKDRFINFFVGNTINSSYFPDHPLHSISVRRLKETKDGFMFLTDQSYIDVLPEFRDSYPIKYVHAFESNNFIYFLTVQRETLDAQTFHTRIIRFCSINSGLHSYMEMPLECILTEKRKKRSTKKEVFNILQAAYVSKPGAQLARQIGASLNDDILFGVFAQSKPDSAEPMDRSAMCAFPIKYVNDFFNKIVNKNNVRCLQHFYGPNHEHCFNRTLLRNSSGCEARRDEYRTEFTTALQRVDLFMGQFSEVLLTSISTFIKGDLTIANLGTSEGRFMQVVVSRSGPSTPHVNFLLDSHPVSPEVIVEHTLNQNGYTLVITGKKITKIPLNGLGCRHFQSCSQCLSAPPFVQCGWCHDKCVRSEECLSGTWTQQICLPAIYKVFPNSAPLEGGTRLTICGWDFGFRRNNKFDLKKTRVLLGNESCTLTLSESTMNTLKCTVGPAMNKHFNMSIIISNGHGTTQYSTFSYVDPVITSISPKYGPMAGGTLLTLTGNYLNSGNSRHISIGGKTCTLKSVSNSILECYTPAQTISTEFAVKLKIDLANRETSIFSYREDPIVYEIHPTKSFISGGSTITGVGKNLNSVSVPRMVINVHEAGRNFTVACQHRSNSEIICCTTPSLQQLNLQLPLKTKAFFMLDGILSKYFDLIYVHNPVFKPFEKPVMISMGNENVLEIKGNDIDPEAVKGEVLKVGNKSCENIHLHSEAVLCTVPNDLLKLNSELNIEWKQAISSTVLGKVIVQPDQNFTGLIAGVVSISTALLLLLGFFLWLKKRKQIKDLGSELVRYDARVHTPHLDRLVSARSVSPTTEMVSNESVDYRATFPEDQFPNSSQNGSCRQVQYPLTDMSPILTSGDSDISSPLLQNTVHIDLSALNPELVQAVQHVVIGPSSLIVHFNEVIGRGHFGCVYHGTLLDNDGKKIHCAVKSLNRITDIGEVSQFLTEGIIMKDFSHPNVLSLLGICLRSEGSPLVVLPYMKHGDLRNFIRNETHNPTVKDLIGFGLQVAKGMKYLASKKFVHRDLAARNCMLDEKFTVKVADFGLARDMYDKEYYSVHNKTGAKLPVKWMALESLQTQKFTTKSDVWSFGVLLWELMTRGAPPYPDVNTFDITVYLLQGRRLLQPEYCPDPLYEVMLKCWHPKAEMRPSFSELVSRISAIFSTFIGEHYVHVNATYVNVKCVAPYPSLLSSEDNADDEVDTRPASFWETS

Binder	cell scattering score, HPAF-II, 0.001 nM [1]	cell scattering score, HPAF-II, 0.004 nM [1]	cell scattering score, HPAF-II, 0.012 nM [1]	cell scattering score, HPAF-II, 0.037 nM [1]	cell scattering score, HPAF-II, 0.111 nM [1]	cell scattering score, HPAF-II, 0.333 nM [1]	cell scattering score, HPAF-II, 1.000 nM [1]	cell scattering score, HPAF-II, 3.000 nM [1]	cell scattering score, HPAF-II, 9.000 nM [1]	cell scattering score, MLP29, 0.001 nM [2]	cell scattering score, MLP29, 0.004 nM [2]	cell scattering score, MLP29, 0.012 nM [2]	cell scattering score, MLP29, 0.037 nM [2]	cell scattering score, MLP29, 0.111 nM [2]	cell scattering score, MLP29, 0.333 nM [2]	cell scattering score, MLP29, 1.000 nM [2]	cell scattering score, MLP29, 3.000 nM [2]	cell scattering score, MLP29, 9.000 nM [2]	EMAX (% relative to control) [3]	EMAX (% relative to control) [4]	also measured
chimeric llama-human IgG1 mAb 74C8 (antibody, V domains shown) VH: EVQLVESGGGLVQPGGSLRLSCAASGFTFRNYHMSWVRQVPGKGFEWISDINSAGGSTYYADSVKGRFTISRDNAKNTLYLEMNSLKPEDTALYYCARVNVWGVNYWGKGTLVSVSS VL: QTVVTQEPSLSVSPGGTVTLTCGLSSGSVTTSNYPGWFQQTPGQAPRTLIYNTNSRHSGVPSRFSGSISGNKAALTITGAQPEDEADYYCSLYPGSYTNVFGGGTHLTVL	0 score 0-4	0 score 0-4	0 score 0-4	1 score 0-4	2 score 0-4	3 score 0-4	3 score 0-4	4 score 0-4	4 score 0-4	0 score 0-4	0 score 0-4	0 score 0-4	1 score 0-4	2 score 0-4	3 score 0-4	3 score 0-4	4 score 0-4	4 score 0-4	85.7%	73.8%	IMAX (maximum % competition) [5]: 76.9%; protection from staurosporine, viability EC50, MCF10A [6]: > 32 nM; protection from staurosporine, viability EMAX, MCF10A [6]: 41.7%; protection from staurosporine, viability EC50, MLP29 [7]: > 32 nM; protection from staurosporine, viability EMAX, MLP29 [7]: 37.5%; IMAX (maximum % competition) [8]: 71.5%
chimeric llama-human IgG1 mAb 72F8 (antibody, V domains shown) VH: ELQLVESGGGLVQPGGSLRLSCAASGFTFSNYVMSWVRQAPGKGLEWVSDTNSGGSTSYADSVKGRFTISRDNAKNTLYLQMNSLKPEDTALYYCARSFFYGMNYWGKGTQVTVSS VL: QSALTQPPSLSASPGSSVRLTCTLSSGNNIGSYDISWYQQKAGSPPRYLLNYYTDSRKHQDSGVPSRFSGSKDASANAGLLLISGLQPEDEADYYCSAYKSGSYRWVFGGGTHVTVL	0 score 0-4	0 score 0-4	0 score 0-4	0 score 0-4	0 score 0-4	0 score 0-4	1 score 0-4	2 score 0-4	3 score 0-4	0 score 0-4	0 score 0-4	0 score 0-4	0 score 0-4	0 score 0-4	0 score 0-4	1 score 0-4	2 score 0-4	3 score 0-4	156%	172%	IMAX (maximum % competition) [5]: 77.3%; protection from staurosporine, viability EC50, MCF10A [6]: > 32 nM; protection from staurosporine, viability EMAX, MCF10A [6]: 35.8%; protection from staurosporine, viability EC50, MLP29 [7]: > 32 nM; protection from staurosporine, viability EMAX, MLP29 [7]: 43.8%; IMAX (maximum % competition) [8]: 72.8%
chimeric llama-human IgG1 mAb 71G12 (antibody, V domains shown) VH: QVQLQESGGDLVQPGGSLRVSCVVSGFTFSRYYMSWVRQAPGKGLEWVSSIDSYGYSTYYTDSVKGRFTISRDNAKNTLYLQMNSLKPEDTALYYCARAKTTWSYDYWGQGTQVTVSS VL: EIVLTQSPSSVTASVGGKVTINCKSSQSVFIASNQKTYLNWYQQRPGQSPRLVISYASTRESGIPDRFSGSGSTTDFTLTISSVQPEDAAVYYCQQAYSHPTFGQGTKVELK	0 score 0-4	0 score 0-4	0 score 0-4	0 score 0-4	0 score 0-4	1 score 0-4	2 score 0-4	2 score 0-4	3 score 0-4	0 score 0-4	0 score 0-4	0 score 0-4	0 score 0-4	0 score 0-4	1 score 0-4	2 score 0-4	2 score 0-4	3 score 0-4	110%	121%	IMAX (maximum % competition) [5]: 51.4%; protection from staurosporine, viability EC50, MCF10A [6]: > 32 nM; protection from staurosporine, viability EMAX, MCF10A [6]: 39.4%; protection from staurosporine, viability EC50, MLP29 [7]: > 32 nM; protection from staurosporine, viability EMAX, MLP29 [7]: 39.7%; IMAX (maximum % competition) [8]: 50.7%
chimeric llama-human IgG1 mAb 76G7 (antibody, V domains shown) VH: QVQLVESGGNLVQPGGSLRLSCAASGFTFSNYYMSWVRQAPGKGLEWVSDIYSDGSTTWYSDSVKGRFTISRDNAKNTLSLQMNSLKSEDTAVYYCARVKIYPGGYDAWGQGTQVTVSS VL: QAGLTQPPSVSGSPGKTVTISCAGNSSDVGYGNYVSWYQQFPGMAPKLLIYLVNKRASGITDRFSGSKSGNTASLTISGLQSEDEADYYCASYTGSNNIVFGGGTHLTVL	0 score 0-4	0 score 0-4	0 score 0-4	0 score 0-4	0 score 0-4	0 score 0-4	1 score 0-4	2 score 0-4	3 score 0-4	0 score 0-4	0 score 0-4	0 score 0-4	0 score 0-4	0 score 0-4	0 score 0-4	1 score 0-4	2 score 0-4	3 score 0-4	121%	115%	IMAX (maximum % competition) [5]: 69.4%; protection from staurosporine, viability EC50, MCF10A [6]: 25.4 nM; protection from staurosporine, viability EMAX, MCF10A [6]: 51.9%; protection from staurosporine, viability EC50, MLP29 [7]: 30.1 nM; protection from staurosporine, viability EMAX, MLP29 [7]: 50.2%; IMAX (maximum % competition) [8]: 62.5%
